Data: patent US20200181634A1 (MENDEL BIOTECHNOLOGY, published 2020)

Biological target: T1, SALT TOLERANCE HOMOLOG2 (STH2) (Arabidopsis thaliana, UniProt Q9LQZ7 1-331, limits assumed)
T1 construct: also called G1482
T1 sequence: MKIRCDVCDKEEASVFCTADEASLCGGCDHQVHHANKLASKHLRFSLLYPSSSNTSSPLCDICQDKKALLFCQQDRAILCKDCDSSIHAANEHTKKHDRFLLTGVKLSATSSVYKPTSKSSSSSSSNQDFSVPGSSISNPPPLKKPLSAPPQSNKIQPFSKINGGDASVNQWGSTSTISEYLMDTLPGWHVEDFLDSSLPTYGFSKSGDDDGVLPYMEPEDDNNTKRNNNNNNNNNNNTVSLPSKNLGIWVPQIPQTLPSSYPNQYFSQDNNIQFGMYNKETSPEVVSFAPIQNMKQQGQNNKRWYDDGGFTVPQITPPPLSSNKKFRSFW
Test: in vitro and protoplast based studies (methods not described)

B1: G1988 (other)
chain: MVSFCELCGAEADLHCAADSAFLCRSCDAKFHASNFLFARHFRRVICPNCKSLTQNFVSGPLLPWPPRTTCCSESSSSSCCSSLDCVSSSELSSTTRDVNRARGRENRVNAKAVAVTVADGIFVNWCGKLGLNRDLTNAVVSYASLALAVETRPRATKRVFLAAAFWFGVKNTTTWQNLKKVEDVTGVSAGMIRAVESKLARAMTQQLRRWRVDSEEGWAENDNV
notes: also called B-box zinc finger transcription factor G1988
binding result: binds
